Key:
[1] = target: LFA-1 mutant L289C/K294C (αL L289C/K294C with β2) on 293T or K562 transfectants (human) (UniProt P05107); test: flow cytometry, K562, normalized to TS2/4
[2] = target: LFA-1 mutant K287C/K294C (αL K287C/K294C with β2) on 293T or K562 transfectants (human) (UniProt P05107); test: flow cytometry, K562, normalized to TS2/4
[3] = target: LFA-1 mutant L289C/K294C (αL L289C/K294C with β2) on 293T or K562 transfectants (human) (UniProt P05107); test: flow cytometry, 293T, normalized to TS2/4
[4] = target: LFA-1 mutant K287C/K294C (αL K287C/K294C with β2) on 293T or K562 transfectants (human) (UniProt P05107); test: flow cytometry, 293T, normalized to TS2/4
[5] = target: LFA-1 single cysteine substitution mutant L289C on 293T transfectants (human) (UniProt P05107); test: flow cytometry, 293T, normalized to TS2/4
[6] = target: LFA-1 single cysteine substitution mutant K294C on 293T transfectants (human) (UniProt P05107); test: flow cytometry, 293T, normalized to TS2/4
[7] = target: LFA-1 single cysteine substitution mutant K287C on 293T transfectants (human) (UniProt P05107); test: flow cytometry, 293T, normalized to TS2/4
[8] = target: LFA-1 mutant K287C/K294C (αL K287C/K294C with β2) on 293T or K562 transfectants (human) (UniProt P05107); test: flow cytometry, K562, normalized to TS1/22
[9] = target: wild-type Mac-1 (αMβ2) on 293T or K562 transfectants (human) (UniProt P05107); test: flow cytometry on K562 stable transfectants with intact Mac-1, row 'Wild-type'
[10] = target: Mac-1 mutant Q163C/Q309C (αM Q163C/Q309C with β2) on 293T or K562 transfectants (human) (UniProt P05107); test: flow cytometry on K562 stable transfectants with intact Mac-1, row printed 'Q163/Q309C'
[11] = target: Mac-1 mutant D294C/Q311C (with β2) on K562 transfectants (human) (UniProt P05107); test: flow cytometry on K562 stable transfectants with intact Mac-1, row 'D294C/Q311C'
[12] = target: isolated K287C/K294C αL I-domain (V130-A338) expressed on K562 cells by the PDGF receptor transmembrane domain (human) (UniProt P20701); test: flow cytometry on K562 transfectants, panel 'K287C/K294C I-domain (#2)'
isolated K287C/K294C αL I-domain (V130-A338) expressed on K562 cells by the PDGF receptor transmembrane domain (human), sequence (P20701 155-363 K312C/K319C limits assumed): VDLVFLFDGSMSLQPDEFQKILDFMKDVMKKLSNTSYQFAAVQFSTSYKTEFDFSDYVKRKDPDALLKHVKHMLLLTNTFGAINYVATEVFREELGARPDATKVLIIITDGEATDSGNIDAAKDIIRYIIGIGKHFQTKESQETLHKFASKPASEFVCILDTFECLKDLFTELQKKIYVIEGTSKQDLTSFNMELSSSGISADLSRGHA

[13] = target: wild-type LFA-1 (αL/β2 complex) expressed on 293T or K562 transfectants (human) (UniProt P05107); test: flow cytometry on K562 transfectants, panel 'intact LFA-1'
[14] = target: isolated L289C/K294C αL I-domain (V130-A338) expressed on K562 cells by the PDGF receptor transmembrane domain (human) (UniProt P20701); test: flow cytometry on K562 transfectants, panel 'L289C/K294C I-domain (#1)'
isolated L289C/K294C αL I-domain (V130-A338) expressed on K562 cells by the PDGF receptor transmembrane domain (human), sequence (P20701 155-363 L314C/K319C limits assumed): as the sequence (P20701 155-363 K312C/K319C limits assumed) above, with C158K, L160C counted along it

[15] = target: isolated wild-type αL I-domain (V130-A338) expressed on K562 cells by the PDGF receptor transmembrane domain (human); test: flow cytometry on K562 transfectants, panel 'WT I-domain (#1)'
isolated wild-type αL I-domain (V130-A338) expressed on K562 cells by the PDGF receptor transmembrane domain (human), sequence (P09619 other isoform, or with tags, fused parts or gaps): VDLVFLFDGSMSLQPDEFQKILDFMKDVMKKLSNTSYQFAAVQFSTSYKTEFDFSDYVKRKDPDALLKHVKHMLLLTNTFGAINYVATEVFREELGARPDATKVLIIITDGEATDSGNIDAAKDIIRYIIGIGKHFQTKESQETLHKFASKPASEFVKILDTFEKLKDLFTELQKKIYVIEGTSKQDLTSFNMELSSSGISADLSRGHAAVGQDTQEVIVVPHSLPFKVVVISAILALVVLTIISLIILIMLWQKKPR

[16] = target: isolated L289C/K294C αL I-domain (V130-A338) expressed on K562 cells by the PDGF receptor transmembrane domain (human) (UniProt P20701); test: flow cytometry on K562 transfectants, panel 'L289C/K294C I-domain (#2)'
[17] = target: isolated wild-type αL I-domain (V130-A338) expressed on K562 cells by the PDGF receptor transmembrane domain (human); test: flow cytometry on K562 transfectants, panel 'WT I-domain (#2)'; nothing is printed after the point
[18] = target: isolated K287C/K294C αL I-domain (V130-A338) expressed on K562 cells by the PDGF receptor transmembrane domain (human) (UniProt P20701); test: flow cytometry on K562 transfectants, panel 'K287C/K294C I-domain (#1)'
[19] = target: LFA-1 mutant L289C/K294C (αL L289C/K294C with β2) on 293T or K562 transfectants (human) (UniProt P05107); test: flow cytometry, K562 L289C K294C (#6), ICAM-1-IgA 100 µg/ml, FITC anti-human IgA, taken after paragraph 201 as ICAM-1-IgA with CBRLFA-1/2 10 µg/ml; left column of this row, taken as no ICAM-1-IgA: 4.68
[20] = target: LFA-1 mutant L289C/K294C (αL L289C/K294C with β2) on 293T or K562 transfectants (human) (UniProt P05107); test: flow cytometry, K562 L289C K294C (#6), ICAM-1-IgA 100 µg/ml, FITC anti-human IgA, taken after paragraph 201 as ICAM-1-IgA without CBRLFA-1/2; left column of this row, taken as no ICAM-1-IgA: 4.68
[21] = target: wild-type LFA-1 (αL/β2 complex) expressed on 293T or K562 transfectants (human) (UniProt P05107); test: flow cytometry, K562 WT (#22), ICAM-1-IgA 100 µg/ml, FITC anti-human IgA, taken after paragraph 201 as ICAM-1-IgA without CBRLFA-1/2; left column of this row, taken as no ICAM-1-IgA: 3.58
[22] = target: LFA-1 mutant K287C/K294C (αL K287C/K294C with β2) on 293T or K562 transfectants (human) (UniProt P05107); test: flow cytometry, K562 K287C K294C (#7), ICAM-1-IgA 100 µg/ml, FITC anti-human IgA, taken after paragraph 201 as ICAM-1-IgA without CBRLFA-1/2; left column of this row, taken as no ICAM-1-IgA: 3.59
[23] = target: LFA-1 mutant K287C/K294C (αL K287C/K294C with β2) on 293T or K562 transfectants (human) (UniProt P05107); test: flow cytometry, K562 K287C K294C (#7), ICAM-1-IgA 100 µg/ml, FITC anti-human IgA, taken after paragraph 201 as ICAM-1-IgA with CBRLFA-1/2 10 µg/ml; left column of this row, taken as no ICAM-1-IgA: 3.59
[24] = target: wild-type LFA-1 (αL/β2 complex) expressed on 293T or K562 transfectants (human) (UniProt P05107); test: flow cytometry, K562 WT (#22), ICAM-1-IgA 100 µg/ml, FITC anti-human IgA, taken after paragraph 201 as ICAM-1-IgA with CBRLFA-1/2 10 µg/ml; left column of this row, taken as no ICAM-1-IgA: 3.58

soluble ICAM-1-IgA chimera containing the 5 Ig domains of human ICAM-1, sequence (P05362 28-480, stated change not applied): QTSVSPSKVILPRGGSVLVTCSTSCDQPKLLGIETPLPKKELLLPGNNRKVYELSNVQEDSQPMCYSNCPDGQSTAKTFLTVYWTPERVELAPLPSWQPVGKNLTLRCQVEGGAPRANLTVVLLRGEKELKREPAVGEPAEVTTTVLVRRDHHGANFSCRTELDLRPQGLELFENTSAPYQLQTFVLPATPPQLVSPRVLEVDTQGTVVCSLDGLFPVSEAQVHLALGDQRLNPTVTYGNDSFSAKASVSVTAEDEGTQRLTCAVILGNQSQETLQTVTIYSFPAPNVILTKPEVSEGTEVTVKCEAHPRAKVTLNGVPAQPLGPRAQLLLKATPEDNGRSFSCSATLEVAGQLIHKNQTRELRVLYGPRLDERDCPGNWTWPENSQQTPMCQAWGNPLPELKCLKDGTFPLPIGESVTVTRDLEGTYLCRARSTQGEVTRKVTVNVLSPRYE

Substance | % wild-type binding (% of wild-type) [1] | % wild-type binding (% of wild-type) [2] | % wild-type binding (% of wild-type) [3] | % wild-type binding (% of wild-type) [4] | % wild-type binding (% of wild-type) [5] | % wild-type binding (% of wild-type) [6] | % wild-type binding (% of wild-type) [7] | further results
anti-β2 (CD18) monoclonal antibody CBRLFA-1/7 | 97.2 | 95.2 | 91.7 | 95.3 |  |  |  | 
anti-β2 (CD18) monoclonal antibody TS1/18 | 106 | 97.4 | 95.7 | 99.8 | 87.3 | 108 | 87.9 | 
monoclonal antibody 25-3-1 | 85.7 | 88.5 | 90.9 | 93.1 |  |  |  | 
monoclonal antibody CBRLFA-1/9 |  |  |  |  |  |  |  | % wild-type binding (% of wild-type) [8]: 84.7
monoclonal antibody CBRM1/5 |  |  |  |  |  |  |  | mean fluorescent intensity [9]: 25; mean fluorescent intensity [10]: 208; mean fluorescent intensity [11]: 262
monoclonal antibody CBRM1/32 |  |  |  |  |  |  |  | mean fluorescent intensity [9]: 120; mean fluorescent intensity [10]: 115; mean fluorescent intensity [11]: 81
monoclonal antibody CLBLFA-1/1 | 100 | 96.5 |  |  |  |  |  | 
mouse anti-human αL (CD11a) monoclonal antibody TS1/11 | 105 | 96 | 93.7 | 94.4 |  |  |  | 
mouse anti-human αL (CD11a) monoclonal antibody TS1/22 | 110 | 93.1 | 91 | 95.8 | 96.2 | 92.2 | 103 | mean fluorescent intensity [12]: 84.6; mean fluorescent intensity [13]: 104; mean fluorescent intensity [14]: 71.1; mean fluorescent intensity [15]: 67.3; mean fluorescent intensity [16]: 151; mean fluorescent intensity [17]: 205; mean fluorescent intensity [18]: 66.3
soluble ICAM-1-IgA chimera containing the 5 Ig domains of human ICAM-1 (from UniProt P05362 28-480) (Fc fusion) |  |  |  |  |  |  |  | mean fluorescent intensity [19]: 4.32; mean fluorescent intensity [20]: 5.36; mean fluorescent intensity [21]: 5.26; mean fluorescent intensity [22]: 24.8; mean fluorescent intensity [23]: 41.3; mean fluorescent intensity [24]: 4.89

More lines, main results first:

% wild-type binding (% of wild-type) [1] | % wild-type binding (% of wild-type) [2] | % wild-type binding (% of wild-type) [3] | % wild-type binding (% of wild-type) [4] | % wild-type binding (% of wild-type) [5] | % wild-type binding (% of wild-type) [6] | % wild-type binding (% of wild-type) [7] | Substance | further results
97.6 | 92.4 | 85.8 | 92.4 | 92.4 | 88.3 | 93.3 | monoclonal antibody BL5 | 
93.9 | 102 | 83.6 | 93.7 | 99.6 | 95.5 | 95.9 | monoclonal antibody F8.8 | 
101 | 92.6 | 82.1 | 92.6 | 95.4 | 106 | 95.8 | monoclonal antibody May.035 | 
85.7 | 97.4 | 95.3 | 89.4 | 86.4 | 92.3 | 98.3 | monoclonal antibody S6F1 | 
106 | 87.3 | 102 | 88.7 | 104 | 93.7 | 99.3 | mouse anti-human αL (CD11a) monoclonal antibody TS1/12 | 
95.9 | 89.2 | 78.6 | 84.9 | 88.2 | 91.7 | 91.4 | mouse anti-human αL (CD11a) monoclonal antibody TS2/6 | 
103 | 95.4 | 83.3 | 85.5 | 100 | 103 | 103 | mouse anti-human αL (CD11a) monoclonal antibody TS2/14 | 
